For this test, the target named is pre-formed CPX-SNARE complex (Complexin 1 with Syntaxin1A, SNAP25B and VAMP2) (human | rat | mouse) (UniProt O14810).

The values that follow come from article doi:10.1101/2024.04.15.589559.

Chain of pre-formed CPX-SNARE complex (Complexin 1 with Syntaxin1A, SNAP25B and VAMP2) (human | rat | mouse) (O14810 whole entry, chain 1 of 4): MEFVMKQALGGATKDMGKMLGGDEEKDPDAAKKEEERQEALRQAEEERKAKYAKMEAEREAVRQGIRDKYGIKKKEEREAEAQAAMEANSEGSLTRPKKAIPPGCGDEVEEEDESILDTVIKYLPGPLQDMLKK
Chain of pre-formed CPX-SNARE complex (Complexin 1 with Syntaxin1A, SNAP25B and VAMP2) (human | rat | mouse) (P32851 whole entry, chain 2 of 4, further chain): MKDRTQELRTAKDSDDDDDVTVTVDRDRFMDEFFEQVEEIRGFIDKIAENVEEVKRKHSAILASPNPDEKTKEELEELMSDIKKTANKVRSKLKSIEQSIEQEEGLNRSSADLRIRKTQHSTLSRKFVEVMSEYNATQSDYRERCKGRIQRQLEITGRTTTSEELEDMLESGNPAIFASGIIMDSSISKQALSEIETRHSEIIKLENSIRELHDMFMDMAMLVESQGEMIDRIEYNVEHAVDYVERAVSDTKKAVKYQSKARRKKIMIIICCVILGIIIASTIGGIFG
Chain of pre-formed CPX-SNARE complex (Complexin 1 with Syntaxin1A, SNAP25B and VAMP2) (human | rat | mouse) (P60879 whole entry, chain 3 of 4, further chain): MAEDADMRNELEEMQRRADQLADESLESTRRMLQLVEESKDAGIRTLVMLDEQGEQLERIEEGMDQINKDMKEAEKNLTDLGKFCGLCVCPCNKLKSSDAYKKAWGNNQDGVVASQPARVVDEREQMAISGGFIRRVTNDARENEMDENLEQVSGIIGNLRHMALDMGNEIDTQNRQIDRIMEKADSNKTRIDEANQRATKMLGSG
Chain of pre-formed CPX-SNARE complex (Complexin 1 with Syntaxin1A, SNAP25B and VAMP2) (human | rat | mouse) (P63027 whole entry, chain 4 of 4, further chain): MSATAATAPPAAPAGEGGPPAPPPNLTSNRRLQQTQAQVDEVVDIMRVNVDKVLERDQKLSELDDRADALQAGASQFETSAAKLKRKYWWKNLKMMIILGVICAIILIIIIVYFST

For “Syt7^DA (SUMO-Syt1^TMD-Syt7 with D225A, D227A, D233A, D357A, D359A) (from UniProt Q62747 17-403)”, the reduction in Ca2+ (100 μM)-evoked fusion of Syt1^WT/VAMP2 vesicles with Syt7^DA in the t-SNARE bilayer, 1:800 to 1:200 protein-to-lipid (~30% to ~70%) is 70%.
